# Source: paper PMC2660430
# Target: PfOAT (recombinant ornithine aminotransferase) (P. falciparum strain 3D7) (UniProt Q6LFH8)
# Sequence (Q6LFH8 whole entry): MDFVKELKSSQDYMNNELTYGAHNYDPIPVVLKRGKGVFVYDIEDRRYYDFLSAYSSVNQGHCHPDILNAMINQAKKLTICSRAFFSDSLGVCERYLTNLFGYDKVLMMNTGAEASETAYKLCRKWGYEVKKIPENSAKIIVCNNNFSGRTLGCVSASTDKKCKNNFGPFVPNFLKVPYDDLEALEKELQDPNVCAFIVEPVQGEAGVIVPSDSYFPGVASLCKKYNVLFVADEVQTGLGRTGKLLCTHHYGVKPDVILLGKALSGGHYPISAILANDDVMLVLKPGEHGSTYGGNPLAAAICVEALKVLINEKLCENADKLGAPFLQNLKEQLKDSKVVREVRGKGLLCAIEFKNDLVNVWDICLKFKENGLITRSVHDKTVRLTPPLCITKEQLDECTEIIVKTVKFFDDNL
substance,measurement,value
PfTrx1 (wild type thioredoxin) (from UniProt Q7KQL8 1-104) (natural protein),OAT activity (ornithine aminotransferase assay) with equimolar wild type thioredoxin,75%
